For 4 molecules, pKd results are on record in article PMC9482650, “Quantitative fragmentomics allow affinity mapping of interactomes” (Nature Communications, 2022).

Targets include IL16_2, Q14005; Inadl_7, Q8NI35; NHERF2_1, Q15599; PDLIM4, P50479; PREX1_1, Q8TCU6; SCRIB_4, Q14160.
Holding throughout (assay): holdup assay
Holding throughout (set-up): key: below the threshold = too weak to quantify, mostly under pKd 3.1 to 4

Another test has as its target T1, INTU, Q9ULD6.
T1 sequence (Q9ULD6 180-273, limits assumed, looked up): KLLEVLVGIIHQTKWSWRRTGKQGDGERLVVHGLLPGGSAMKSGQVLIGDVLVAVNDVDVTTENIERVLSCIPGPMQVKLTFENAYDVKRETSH
Particulars: plain residues with an end cap or a label only (N-terminal biotin on a linker: (peg)3).

The next test has as its target LNX1_4, Q8TBB1. Particulars: plain residues with an end cap or a label only (N-terminal biotin on a linker: (peg)3).
A further test has as its target T2, MAGI2_1, Q86UL8.
T2 sequence (Q86UL8 12-111, limits assumed, looked up): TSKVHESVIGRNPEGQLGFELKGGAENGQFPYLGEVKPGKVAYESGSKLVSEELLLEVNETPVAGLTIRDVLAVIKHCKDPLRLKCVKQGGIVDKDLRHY

For a further test, the target named is T3, MPDZ_6, O75970.
T3 sequence (O75970 1003-1099, limits assumed, looked up): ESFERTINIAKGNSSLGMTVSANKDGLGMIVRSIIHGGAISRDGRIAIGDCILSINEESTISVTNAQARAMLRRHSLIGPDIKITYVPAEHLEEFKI

For another test, the target named is T4, NHERF1_1, O14745.
T4 sequence (O14745 9-104, limits assumed, looked up): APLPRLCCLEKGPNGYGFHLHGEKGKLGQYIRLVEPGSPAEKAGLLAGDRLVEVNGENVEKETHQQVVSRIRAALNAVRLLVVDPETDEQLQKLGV

The target of another test is T5, NHERF1_2, O14745.
T5 sequence (O14745 149-244, limits assumed, looked up): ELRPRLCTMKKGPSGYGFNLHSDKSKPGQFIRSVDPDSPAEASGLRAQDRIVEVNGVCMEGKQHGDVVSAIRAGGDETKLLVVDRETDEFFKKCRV

A further test concerns the target T6, PARD6B, Q9BYG5.
T6 sequence (Q9BYG5 152-260, limits assumed, looked up): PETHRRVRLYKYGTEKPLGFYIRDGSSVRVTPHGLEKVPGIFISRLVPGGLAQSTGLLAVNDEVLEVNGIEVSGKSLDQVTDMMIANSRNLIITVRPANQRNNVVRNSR
Particulars: plain residues with an end cap or a label only (N-terminal biotin on a linker: (peg)3).

The target of a further test is T7, PDLIM3, Q53GG5.
T7 sequence (Q53GG5 1-94, limits assumed, looked up): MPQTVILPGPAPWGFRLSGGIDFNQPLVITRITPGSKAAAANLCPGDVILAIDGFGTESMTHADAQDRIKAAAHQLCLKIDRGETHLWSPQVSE

For another test, the target named is T8, PDZD2_1, O15018.
T8 sequence (O15018 80-192, limits assumed, looked up): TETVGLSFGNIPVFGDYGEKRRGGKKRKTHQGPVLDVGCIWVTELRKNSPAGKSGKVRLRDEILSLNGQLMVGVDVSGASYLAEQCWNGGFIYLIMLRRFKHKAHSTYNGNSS

The target of another test is T9, PDZD2_4, O15018.
T9 sequence (O15018 723-823, limits assumed, looked up): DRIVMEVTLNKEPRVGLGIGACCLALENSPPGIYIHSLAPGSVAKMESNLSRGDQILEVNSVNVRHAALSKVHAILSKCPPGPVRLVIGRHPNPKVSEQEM

A further test has as its target T10, PDZD2_5, O15018.
T10 sequence (O15018 2617-2716, limits assumed, looked up): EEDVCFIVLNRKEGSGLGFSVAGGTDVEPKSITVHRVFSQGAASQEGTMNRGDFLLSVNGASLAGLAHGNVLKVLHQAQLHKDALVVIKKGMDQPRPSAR

The target of another test is T11, PDZRN3_2, Q9UPQ7.
T11 sequence (Q9UPQ7 414-513, limits assumed, looked up): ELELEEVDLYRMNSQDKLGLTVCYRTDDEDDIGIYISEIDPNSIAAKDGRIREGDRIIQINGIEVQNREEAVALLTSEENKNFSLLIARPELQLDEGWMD
Particulars: plain residues with an end cap or a label only (N-terminal biotin on a linker: (peg)3).

Another test deals with T12, PREX2_2, Q70Z35.
T12 sequence (Q70Z35 672-764, limits assumed, looked up): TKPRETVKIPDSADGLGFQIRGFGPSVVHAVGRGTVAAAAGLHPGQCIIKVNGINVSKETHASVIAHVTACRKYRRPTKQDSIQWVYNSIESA

The target in a further test is T13, SIPA1L3, O60292.
T13 sequence (O60292 961-1052, limits assumed, looked up): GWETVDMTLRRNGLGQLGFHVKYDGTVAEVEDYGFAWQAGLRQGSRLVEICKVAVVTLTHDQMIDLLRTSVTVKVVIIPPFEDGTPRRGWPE

Another test deals with T14, TJP3_2, O95049.
T14 sequence (O95049 190-282, limits assumed, looked up): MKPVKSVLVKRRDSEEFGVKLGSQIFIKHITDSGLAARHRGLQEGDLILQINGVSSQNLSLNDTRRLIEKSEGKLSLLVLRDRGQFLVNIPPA

In a further test the target is T15, USH1C_2, Q9Y6N9.
T15 sequence (Q9Y6N9 206-303, limits assumed, looked up): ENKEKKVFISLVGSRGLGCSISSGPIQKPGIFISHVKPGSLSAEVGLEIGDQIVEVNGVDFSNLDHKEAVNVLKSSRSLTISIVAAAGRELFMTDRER

[1] abbreviates: plain residues with an end cap or a label only (N-terminal biotin on a linker: (peg)3).
Setting [2] is: modified: phospho on T at position -2 from the C-terminal residue.

Sequence of LNX1_4, Q8TBB1 (Q8TBB1 631-726): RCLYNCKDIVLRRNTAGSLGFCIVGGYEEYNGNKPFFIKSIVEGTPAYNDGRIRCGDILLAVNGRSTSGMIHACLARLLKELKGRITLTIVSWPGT
Sequence of NHERF2_1, Q15599 (Q15599 9-91): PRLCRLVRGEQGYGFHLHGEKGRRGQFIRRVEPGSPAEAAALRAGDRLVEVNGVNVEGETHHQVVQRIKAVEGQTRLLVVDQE
Sequence of PDLIM4, P50479 (P50479 1-83): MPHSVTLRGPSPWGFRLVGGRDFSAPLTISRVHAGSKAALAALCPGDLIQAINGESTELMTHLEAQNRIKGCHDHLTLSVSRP
Sequence of PREX1_1, Q8TCU6 (Q8TCU6 608-718): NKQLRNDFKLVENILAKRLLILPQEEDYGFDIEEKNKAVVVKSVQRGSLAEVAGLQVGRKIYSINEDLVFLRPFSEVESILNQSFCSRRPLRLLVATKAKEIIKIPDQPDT
Sequence of Inadl_7, Q8NI35 (Q8NI35 1219-1332): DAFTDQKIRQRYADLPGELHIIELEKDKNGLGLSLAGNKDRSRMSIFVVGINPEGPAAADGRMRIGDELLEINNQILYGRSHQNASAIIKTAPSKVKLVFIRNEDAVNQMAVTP
Sequence of SCRIB_4, Q14160 (Q14160 1095-1204): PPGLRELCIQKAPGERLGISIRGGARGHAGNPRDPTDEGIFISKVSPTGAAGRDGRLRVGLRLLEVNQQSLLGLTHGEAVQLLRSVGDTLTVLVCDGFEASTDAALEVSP
Sequence of IL16_2, Q14005 (Q14005 350-450): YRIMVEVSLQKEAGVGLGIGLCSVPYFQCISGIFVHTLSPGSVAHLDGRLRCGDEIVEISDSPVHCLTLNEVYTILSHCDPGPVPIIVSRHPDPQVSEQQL

B1: WNV-NS5, Q9Q6P4 (peptide)
chain: RYEDTTLVEDTVL
In general, pKd refers to the Kd on a negative log10 scale, so that one unit is a factor of ten. For B1, the pKd entry was “below the threshold” in the test with IL16_2, Q14005 (setting [1]); “below the threshold” with INTU, Q9ULD6; “below the threshold” in the test with Inadl_7, Q8NI35 (setting [1]); “below the threshold” with LNX1_4, Q8TBB1; “below the threshold” in the test with MAGI2_1, Q86UL8 (setting [1]); 3.94 with MPDZ_6, O75970 (setting [1]). Also, the pKd is 5.14 with NHERF1_1, O14745 (setting [1]); “below the threshold” with NHERF1_2, O14745 (setting [1]); 4.19 with NHERF2_1, Q15599 (setting [1]); “below the threshold” with PARD6B, Q9BYG5; “below the threshold” in the test with PDLIM3, Q53GG5 (setting [1]); “below the threshold” with PDLIM4, P50479 (setting [1]). Further, the pKd entry in the test with PDZD2_1, O15018 (setting [1]) is on record as “below the threshold”; in the test with PDZD2_4, O15018 (setting [1]), “below the threshold”; in the test with PDZD2_5, O15018 (setting [1]) it was “below the threshold”; with PDZRN3_2, Q9UPQ7 it was “below the threshold”; with PREX1_1, Q8TCU6 (setting [1]) it was “below the threshold”; in the test with PREX2_2, Q70Z35 (setting [1]), “below the threshold”. Besides, the pKd result with SCRIB_4, Q14160 (setting [1]) was “below the threshold”; in the test with SIPA1L3, O60292 (setting [1]), “below the threshold”; with TJP3_2, O95049 (setting [1]) it was 4.25; in the test with USH1C_2, Q9Y6N9 (setting [1]) it was “below the threshold”.

B2: SARS-Cov2-N, P0DTC9 (peptide)
chain: QQSMSSADSTQA
For B2, the pKd entry in the test with IL16_2, Q14005 (setting [1]) is listed as “below the threshold”; with INTU, Q9ULD6, “below the threshold”; with Inadl_7, Q8NI35 (setting [1]), “below the threshold”; with LNX1_4, Q8TBB1, “below the threshold”; in the test with MAGI2_1, Q86UL8 (setting [1]) it was “below the threshold”; in the test with MPDZ_6, O75970 (setting [1]) it was “below the threshold”. The pKd result with NHERF1_1, O14745 (setting [1]) is given as “below the threshold”; in the test with NHERF1_2, O14745 (setting [1]), “below the threshold”; with NHERF2_1, Q15599 (setting [1]) it was “below the threshold”; in the test with PARD6B, Q9BYG5, “below the threshold”; with PDLIM3, Q53GG5 (setting [1]), “below the threshold”; in the test with PDLIM4, P50479 (setting [1]) it was “below the threshold”. The pKd result in the test with PDZD2_1, O15018 (setting [1]) was “below the threshold”; with PDZD2_4, O15018 (setting [1]), “below the threshold”; with PDZD2_5, O15018 (setting [1]), “below the threshold”; with PDZRN3_2, Q9UPQ7, “below the threshold”; with PREX1_1, Q8TCU6 (setting [1]) it was “below the threshold”; with PREX2_2, Q70Z35 (setting [1]), “below the threshold”. Besides, the pKd entry in the test with SCRIB_4, Q14160 (setting [1]) is given as “below the threshold”; with SIPA1L3, O60292 (setting [1]), “below the threshold”; with TJP3_2, O95049 (setting [1]), “below the threshold”; in the test with USH1C_2, Q9Y6N9 (setting [1]), “below the threshold”.

B3: HPV16-E6_-2P, P03126 (peptide)
chain: SSRTRRETQL
On to B3, for which the pKd result is “below the threshold” in the test with IL16_2, Q14005 (setting [2]); “below the threshold” in the test with Inadl_7, Q8NI35 (setting [2]); “below the threshold” with MAGI2_1, Q86UL8 (setting [2]); “below the threshold” in the test with MPDZ_6, O75970 (setting [2]); “below the threshold” with NHERF1_1, O14745 (setting [2]); “below the threshold” with NHERF1_2, O14745 (setting [2]). Further, the pKd entry in the test with NHERF2_1, Q15599 (setting [2]) is reported as “below the threshold”; with PDLIM3, Q53GG5 (setting [2]) it was “below the threshold”; with PDLIM4, P50479 (setting [2]) it was “below the threshold”; in the test with PDZD2_1, O15018 (setting [2]), “below the threshold”; with PDZD2_4, O15018 (setting [2]) it was “below the threshold”; with PDZD2_5, O15018 (setting [2]) it was “below the threshold”. Besides, the pKd entry in the test with PREX1_1, Q8TCU6 (setting [2]) was “below the threshold”; with PREX2_2, Q70Z35 (setting [2]), “below the threshold”; with SCRIB_4, Q14160 (setting [2]), “below the threshold”; with SIPA1L3, O60292 (setting [2]) it was “below the threshold”; in the test with TJP3_2, O95049 (setting [2]), “below the threshold”; with USH1C_2, Q9Y6N9 (setting [2]), 4.45.

B4: HBV-HBc, P03193 (peptide)
chain: RRRRSQSRESQC
Turning to B4, the pKd entry was “below the threshold” in the test with IL16_2, Q14005 (setting [1]); “below the threshold” with INTU, Q9ULD6; “below the threshold” with Inadl_7, Q8NI35 (setting [1]); “below the threshold” with LNX1_4, Q8TBB1; “below the threshold” in the test with MAGI2_1, Q86UL8 (setting [1]); “below the threshold” in the test with MPDZ_6, O75970 (setting [1]). The pKd entry in the test with NHERF1_1, O14745 (setting [1]) was “below the threshold”; in the test with NHERF1_2, O14745 (setting [1]), 3.96; with NHERF2_1, Q15599 (setting [1]) it was “below the threshold”; with PARD6B, Q9BYG5, “below the threshold”; with PDLIM3, Q53GG5 (setting [1]), 4.1; with PDLIM4, P50479 (setting [1]), “below the threshold”. The pKd entry with PDZD2_1, O15018 (setting [1]) is reported as “below the threshold”; in the test with PDZD2_4, O15018 (setting [1]), “below the threshold”; with PDZRN3_2, Q9UPQ7, “below the threshold”; with PREX1_1, Q8TCU6 (setting [1]) it was “below the threshold”; with PREX2_2, Q70Z35 (setting [1]) it was “below the threshold”; with SCRIB_4, Q14160 (setting [1]), “below the threshold”. The pKd with SIPA1L3, O60292 (setting [1]) is 3.96; with TJP3_2, O95049 (setting [1]), “below the threshold”; in the test with USH1C_2, Q9Y6N9 (setting [1]), 4.09.
